Results taken from US20030175703.
Read-outs that look alike come from different tables or passages of the source.

Tests used:
[1] = system: E2F
[2] = system: E2F; remark: listed apart in the source
[3] = molecular target: coagulation factor Xa (FXa) (UniProt P00742+P00742)
[4] = molecular target: coagulation factor IXa (FIXa) (UniProt P00740+P00740); details: FIG. 20 legend gives >>5 uM
coagulation factor IXa (FIXa), sequence (P00740 47-191, chain 1 of 2): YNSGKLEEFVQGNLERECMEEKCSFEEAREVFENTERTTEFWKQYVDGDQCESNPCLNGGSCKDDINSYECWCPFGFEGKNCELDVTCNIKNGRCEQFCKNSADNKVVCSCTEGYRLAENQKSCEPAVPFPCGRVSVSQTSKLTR
coagulation factor IXa (FIXa), sequence (P00740 227-461, chain 2 of 2): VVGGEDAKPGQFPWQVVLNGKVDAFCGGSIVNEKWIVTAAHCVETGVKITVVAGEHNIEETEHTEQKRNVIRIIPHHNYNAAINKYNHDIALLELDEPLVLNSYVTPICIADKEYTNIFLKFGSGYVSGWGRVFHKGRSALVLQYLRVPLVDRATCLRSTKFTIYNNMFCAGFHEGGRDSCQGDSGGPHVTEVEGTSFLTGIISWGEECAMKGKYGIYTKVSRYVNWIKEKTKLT

coagulation factor Xa (FXa), sequence (P00742 41-179, chain 1 of 2): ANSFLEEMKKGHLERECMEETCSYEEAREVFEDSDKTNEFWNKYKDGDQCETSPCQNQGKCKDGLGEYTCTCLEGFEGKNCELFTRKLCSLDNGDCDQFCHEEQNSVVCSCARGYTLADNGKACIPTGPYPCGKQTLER
coagulation factor Xa (FXa), sequence (P00742 235-488, chain 2 of 2): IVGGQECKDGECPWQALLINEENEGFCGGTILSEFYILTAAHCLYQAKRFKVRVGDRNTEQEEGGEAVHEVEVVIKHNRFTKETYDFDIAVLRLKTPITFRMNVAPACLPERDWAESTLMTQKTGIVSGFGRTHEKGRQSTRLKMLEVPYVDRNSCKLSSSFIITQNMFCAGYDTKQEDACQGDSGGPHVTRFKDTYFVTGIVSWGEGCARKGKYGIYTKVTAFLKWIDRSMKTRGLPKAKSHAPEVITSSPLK

| Substance | Kd ([1]; random region only) | other results |
| --- | --- | --- |
| CAAGCGUAUACCCUACCCACACUGAGCUACAUUGCGCUGA [E2F aptamer 213] | 8 nM | – |
| UUAUAUAGCACACUGAAGCCCUCAGCAAAACCUCCACAGG [E2F aptamer 223] | 1.5 nM | – |
| GGGAGAGAGGAAGAGGGAGGGCAAACCACAGACCCAACGCAGGAGCACCCACCCACACGGGACAGCAAACCCAGAGGCGAAGACGGACCCCCC [E2F 10-5] | – | Kd ([2]; printed sequence appears to lack U residues (compare SEQ 225)): 2.5 nM |
| CACUGAACGAAUGGCAACCGCCAAACCCUACCCACACUGG [E2F aptamer 212] | – | Kd ([1]; listed as assignment inferred): 0.2 nM |
| GGGAGAGAGGAAGAGGGAGGGAAGGAACACGAAGGCCCCCGAGCACCAACACAGCAAACCCAGAGGCGAAGACGGACCCCCC [E2F 10-1 / 10-8] | – | Kd ([2]; printed sequence appears to lack U residues (compare SEQ 221)): 1.5 nM |
| GGGAGAGAGGAAGAGGGAUGGGAAAAUACGCCANNCGAGAUUAUACUUGGCCCCGCUAAUACCAUAACCCAGAGGUCGAU [D6-6] | – | Kd [3]: 3.1 nM |
| ACCUCGACCCUUCACCUGACUCUCCCAGAAGUUCUGUUUC [E2F aptamer 219] | 2 nM | – |
| CAAGCGCUGAAACCAAUGCACCCCACCCCACACUGGUGUAC [E2F aptamer 204] | 1.25 nM | – |
| AAUGGAAUCACUGAAGGCCCUCCGUAGCACCUAACACAGU [E2F aptamer 221] | 1.5 nM | – |
| UAUGAAAUCACAGAAGCCCGCGUUCGACACCUCCACUGUU [E2F aptamer 224] | 3 nM | – |
| UUUCCUAUGGCGAUAACUUCAGCCACGCCGGCGCCCCGUG [E2F aptamer 215] | 30 nM | – |
| AUCCCCGCCGUAAGCCGUCCUGAUGGACACCACACGCCGC [E2F aptamer 226] | – | Kd ([1]; random region only, table and listing differ near 5' end): 2 nM |
| GCCGAGAGUGAGUGACCACAACCCCGCCCACACUGGAAUA [E2F aptamer 214] | 1.5 nM | – |
| CGAACGAACUGUGGACCCUACCCACACUGGGCCAAGCGAU [E2F aptamer 207] | 0.4 nM | – |
| GCACUAAACUUCGAUUACCCCCCACCCACACUGGCUGCAC [E2F aptamer 200] | 4 nM | – |
| GCUGCCGCGCCUGGACCCCACCCACAUAUGGGCCACACAC [E2F aptamer 189] | – | Kd ([1]; random region only, listing prints T for U): 1.5 nM |
| GGGAGAGAGGAAGAGGGAGGGAGAAACACAGAAGCCCGCGCGACACCCCACGCAAACCCAGAGGCGAAGACGGACCCCCC [E2F 10-4] | – | Kd ([2]; printed sequence appears to lack U residues (compare SEQ 224)): 5 nM |
| CGUCACUCCGUCCCAGCCGACGAAGUCCGUAAUUCCUCCA [E2F aptamer 216] | 45 nM | – |
| GCAUCCUGCCAGCGGCGACGGACCUUCGCCCACAGGCCUC [E2F aptamer 222] | 2 nM | – |
| GGGAGAGAGGAAGAGGGAUGGGAGUCCGACUGGAGAACANGUACUCUAUAAGCACUUNCAUNCANCAUAACCCAGAGGUCGAU [E10-7] | – | Kd [3]: 69.5 nM |
| CCACCCGAAGCAAAUCAAGCCCGACGGCGCUCGGACCAAC [E2F aptamer 217] | 15 nM | – |
| 9.3tM | – | Kd [4]: > 10000 nM |
| GGGAGAGAGGAAGAGGGAGGGAAAGCACACGAAGCCCCAGCAAAACCCCACAGGCAAACCCAGAGGCGAAGACGGACCCCCC [E2F 10-3 / 10-7 / 10-11 / 10-12] | – | Kd ([2]; printed sequence appears to lack U residues (compare SEQ 223)): 1 nM |
| GGGAGAGAGGAAGAGGGAGGGGCACCGCCAGCGGCGACGGACCCGCCCACAGGCCCCAAACCCAGAGGCGAAGACGGACCCCCC [E2F 10-2] | – | Kd ([2]; printed sequence appears to lack U residues (compare SEQ 222)): 3 nM |
| GGGAGAGAGGAAGAGGGAUGGGCCAUUGCUNCCCUGAACANGGGCNCCACNCCGCCUNCACAGUCAUAACCCAGAGGUCGAU [E10-1] | – | Kd [3]: 51.7 nM |
| CAGAUUACCCUACCCACACUGCGUGCGGACAACCAUUGGC [E2F aptamer 201] | 0.4 nM | – |
| GGGAGAGAGGAAGAGGGAUGGGNGAUUAGCCCNAGCGAGAUANUACUUGGCCCCGCUACNUCCAUAACCCAGAGGUCGAU [D7-8] | – | Kd [3]: 14.5 nM |
| GGGAGAGAGGAAGAGGGAGGGACCCCGCCGAAGCCGCCGAGGACACCACACCCGCCAAACCCAGAGGCGAAGACGGACCCCCC [E2F 10-6] | – | Kd ([2]; printed sequence appears to lack U residues (compare SEQ 226)): 2 nM |
